Experimental data from publication PMC8321558.

T1: RelA^N-terminal (purified RelA catalytic domains) (Escherichia coli)
T1 sequence (P0AG20 whole entry, looked up): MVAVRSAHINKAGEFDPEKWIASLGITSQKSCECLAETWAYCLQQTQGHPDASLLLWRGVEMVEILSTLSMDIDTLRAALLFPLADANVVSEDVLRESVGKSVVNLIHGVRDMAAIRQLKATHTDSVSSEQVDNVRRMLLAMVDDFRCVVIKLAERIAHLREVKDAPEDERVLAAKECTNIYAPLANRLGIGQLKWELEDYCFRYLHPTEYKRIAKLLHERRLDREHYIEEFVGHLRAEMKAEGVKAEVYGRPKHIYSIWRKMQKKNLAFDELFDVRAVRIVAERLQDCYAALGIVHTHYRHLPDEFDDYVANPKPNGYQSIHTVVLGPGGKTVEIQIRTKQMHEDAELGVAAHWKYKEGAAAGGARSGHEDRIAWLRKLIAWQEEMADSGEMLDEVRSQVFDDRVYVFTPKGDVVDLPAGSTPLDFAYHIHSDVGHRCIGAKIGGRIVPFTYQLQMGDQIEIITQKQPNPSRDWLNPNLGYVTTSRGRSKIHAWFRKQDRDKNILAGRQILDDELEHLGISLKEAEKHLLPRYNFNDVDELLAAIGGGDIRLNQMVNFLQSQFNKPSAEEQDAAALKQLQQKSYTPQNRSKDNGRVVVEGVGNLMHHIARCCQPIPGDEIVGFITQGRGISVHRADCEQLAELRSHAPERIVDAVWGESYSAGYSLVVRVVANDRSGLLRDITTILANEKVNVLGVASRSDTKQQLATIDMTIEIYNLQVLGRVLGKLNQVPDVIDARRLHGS


Key:
[1] = biological target: NirD (purified, untagged) (Escherichia coli) (UniProt P0A9I8); test: BLI; biotinylated NirD or NirD^E50K on streptavidin biosensors, RelA^N-terminal as analyte (up to 30 µM); BLItz, 25°C; 50 mM Tris-HCl pH 8.0, 500 mM NaCl, 500 mM KCl, 2 mM β-mercaptoethanol, 2% glycerol; KD from steady-state responses, one site model
[2] = biological target: T1, RelA^N-terminal (purified RelA catalytic domains) (Escherichia coli); test: ITC; RelA^N-terminal (30 µM) in the cell, NirD or NirD^E50K (300 µM) in the syringe; 25°C; 50 mM Tris-HCl pH 8.0, 500 mM NaCl, 500 mM KCl, 2 mM β-mercaptoethanol, 2% glycerol; One Set of Sites model
[3] = biological target: T1, RelA^N-terminal (purified RelA catalytic domains) (Escherichia coli)

Molecule | Kd [1] [nM] | Kd [2] [nM] | dH [2] [kcal/mol] | in vitro pppGpp synthesis by 1 µM RelA^N-terminal with 4 µM NirD: percent of GTP converted to pppGpp within 60 min (80% without NirD) [3] [%]
RelA^N-terminal (purified RelA catalytic domains) (domain or fragment) | 550 |  |  | 
NirD (purified, untagged) (natural protein, biotinylated with EZ-Link NHS-PEG4-Biotin for the biolayer interferometry only) MSQWKDICKIDDILPETGVCALLGDEQVAIFRPYHSDQVFAISNIDPFFESSVLSRGLIAEHQGELWVASPLKKQRFRLSDGLCMEDEQFSVKHYEARVKDGVVQLRG |  | 340 | -3.63 | 30
